In publication PMC6957217, “Molecular anatomy of the receptor binding module of a bacteriophage long tail fiber” (PLoS Pathogens, 2019):

Target: the molecule itself
Experiment: SEC; Hi-Load 16/60 Superdex-200 in PBS pH 7.4; trimers eluted at the expected 81 kDa size

B1: Phage T4 LTF needle (gp37; amino acids 799–1026), wild type (domain or fragment)
chain: not shown
notes: bacteriophage T4 long tail fiber protein gp37, needle (domains D10 and D11), amino acids 799-1026; pCDF Duet-1 MCS1; also called gp37 needle; WT gp37; source: E. coli BL21 (DE3) pLysS, co-expressed with chaperones gp38 and gp57A, purified (HisTrap, Superdex-200 SEC, trimer peak)
  stoichiometry N: 3
